The values that follow come from article PMC12205651, “A 36-base hairpin within lncRNA DRAIC, which is modulated by alternative splicing, interacts with the IKKα coiled-coil domain and inhibits NF-κB and tumor cell phenotypes”.

Data set [1] addresses T1, IKKα-His (UniProt O15111).
T1 sequence: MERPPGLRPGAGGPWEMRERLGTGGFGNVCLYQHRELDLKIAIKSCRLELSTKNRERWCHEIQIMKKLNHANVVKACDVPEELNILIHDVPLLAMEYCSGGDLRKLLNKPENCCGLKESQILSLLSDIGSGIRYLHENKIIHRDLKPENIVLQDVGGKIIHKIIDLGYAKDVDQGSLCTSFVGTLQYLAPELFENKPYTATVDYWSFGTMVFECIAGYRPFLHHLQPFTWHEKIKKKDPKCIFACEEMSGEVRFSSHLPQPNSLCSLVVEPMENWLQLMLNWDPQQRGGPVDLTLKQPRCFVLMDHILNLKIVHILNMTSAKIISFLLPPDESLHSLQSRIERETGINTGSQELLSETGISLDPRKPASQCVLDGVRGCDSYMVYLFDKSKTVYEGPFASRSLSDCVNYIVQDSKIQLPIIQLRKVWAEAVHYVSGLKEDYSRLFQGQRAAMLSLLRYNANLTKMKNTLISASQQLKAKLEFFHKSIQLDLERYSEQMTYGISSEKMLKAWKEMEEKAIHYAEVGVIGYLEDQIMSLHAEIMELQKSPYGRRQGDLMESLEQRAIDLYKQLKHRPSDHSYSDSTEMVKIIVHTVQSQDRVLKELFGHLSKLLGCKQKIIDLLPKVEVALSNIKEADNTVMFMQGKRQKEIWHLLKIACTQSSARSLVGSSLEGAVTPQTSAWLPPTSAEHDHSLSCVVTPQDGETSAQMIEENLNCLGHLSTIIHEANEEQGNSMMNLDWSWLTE
Briefly: pull-down (in vitro RIP-qPCR). As to conditions: SPR: 10 mM HEPES pH 7.4, 150 mM NaCl, 3 mM EDTA, 0.05% P20, 25 °C; pull-down: 25 mM HEPES pH 7.5, 150 mM NaCl, 0.05% NP-40, 10% glycerol, RT; EMSA: LightShift …. (A gel shift assay detects complexes by their altered migration in electrophoresis.)

Data set [2] concerns the target T1, IKKα-His. In words: SPR. As to conditions: SPR: 10 mM HEPES pH 7.4, 150 mM NaCl, 3 mM EDTA, 0.05% P20, 25 °C; pull-down: 25 mM HEPES pH 7.5, 150 mM NaCl, 0.05% NP-40, 10% glycerol, RT; EMSA: LightShift ….
The target in another data set is GST-NEMO (UniProt Q9Y6K9 1-419). In words: SPR; biotin RNA immobilized; SPR: 10 mM HEPES pH 7.4, 150 mM NaCl, 3 mM EDTA, 0.05% P20, 25 °C; pull-down: 25 mM HEPES pH 7.5, 150 mM NaCl, 0.05% NP-40, 10% glycerol, RT; EMSA: LightShift kit, 22 °C, 25 min. The conditions noted are these: protein: recombinant; tags: GST; chain copies: 2; label: 5' biotin; hairpin.
A further data set has as its target T2, MBP-IKKα-6His (UniProt O15111 1-745).
T2 sequence: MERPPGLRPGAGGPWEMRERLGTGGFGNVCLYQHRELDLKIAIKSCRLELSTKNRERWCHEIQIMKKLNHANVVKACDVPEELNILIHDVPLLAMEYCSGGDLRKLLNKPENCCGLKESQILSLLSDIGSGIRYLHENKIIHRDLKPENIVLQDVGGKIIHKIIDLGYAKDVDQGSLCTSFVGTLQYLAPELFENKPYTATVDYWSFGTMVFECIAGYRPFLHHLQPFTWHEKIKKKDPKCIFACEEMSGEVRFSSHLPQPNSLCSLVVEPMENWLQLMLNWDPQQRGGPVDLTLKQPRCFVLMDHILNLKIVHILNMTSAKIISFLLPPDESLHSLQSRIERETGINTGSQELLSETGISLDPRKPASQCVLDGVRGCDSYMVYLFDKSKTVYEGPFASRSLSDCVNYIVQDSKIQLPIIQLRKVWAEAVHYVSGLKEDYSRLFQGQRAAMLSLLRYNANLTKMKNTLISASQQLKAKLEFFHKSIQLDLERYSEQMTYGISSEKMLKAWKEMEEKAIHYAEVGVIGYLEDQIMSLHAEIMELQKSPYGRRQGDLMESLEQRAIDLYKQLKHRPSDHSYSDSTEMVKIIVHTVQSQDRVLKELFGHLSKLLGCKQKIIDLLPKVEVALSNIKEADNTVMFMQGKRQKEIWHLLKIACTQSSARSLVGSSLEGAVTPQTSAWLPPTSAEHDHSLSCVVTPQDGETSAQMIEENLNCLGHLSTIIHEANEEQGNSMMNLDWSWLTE
Briefly: SPR; biotin RNA immobilized on NeutrAvidin chip, protein analyte; text gives 6.09 ± 1.08 nM; SPR: 10 mM HEPES pH 7.4, 150 mM NaCl, 3 mM EDTA, 0.05% P20, 25 °C; pull-down: 25 mM HEPES pH 7.5, 150 mM NaCl, 0.05% NP-40, 10% glycerol, RT; EMSA: LightShift kit, 22 °C, 25 min. The conditions noted are these: protein: recombinant; tags: N-term MBP (pMAL-c5X), C-term His6; chain copies: 2; label: 5' biotin; hairpin.

Sequence of GST-NEMO (Q9Y6K9 whole entry): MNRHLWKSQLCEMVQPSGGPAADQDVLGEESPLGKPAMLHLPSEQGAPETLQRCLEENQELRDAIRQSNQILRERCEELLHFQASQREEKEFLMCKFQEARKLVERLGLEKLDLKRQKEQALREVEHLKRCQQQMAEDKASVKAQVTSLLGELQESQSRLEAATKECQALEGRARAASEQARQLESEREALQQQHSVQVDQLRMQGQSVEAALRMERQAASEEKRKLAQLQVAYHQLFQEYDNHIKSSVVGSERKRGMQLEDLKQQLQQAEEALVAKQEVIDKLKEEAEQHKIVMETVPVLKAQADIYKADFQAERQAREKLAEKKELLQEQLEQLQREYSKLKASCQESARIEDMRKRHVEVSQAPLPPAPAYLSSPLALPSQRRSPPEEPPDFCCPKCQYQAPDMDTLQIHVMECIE

On to “GGGAGAUUGGAAUAACUUGCAGUGUCUUGCAGUAUUGUGAAACCAGCAACUUGUUCACAAUUCUUCUGAAUUUCUUGGGAAAUUUGAAGUGGAGUACCUGUACCAACAUGAAAUGACACGAAUUUAAGUGACGCUCAACAACGAAAAGCAAAAAGAACCAAAGAGGAAGCAACUGAAACAACAUCUGGAUGUAUUUAAAAAUAUACAAUGCCUCCAAAAUCAGGUGUCAUUAAUGAAAAUUCUGAAGAAAUG [DRAIC 705-950]”, for which, in the data set with IKKα-His [1], the binding result was “binds”.
The term Kd denotes the constant that tells how readily two partners part at equilibrium. In the case of “UUGGAAUAACUUGCAGUGCCAGCAACUUGUUCACAA [A+B DRAIC RNA]”, in the data set with IKKα-His [2], the Kd was 0.541 nM.
Turning to UUGGAAUAACUUGCAGUGCCAGCAACUUGUUCACAA (structured_RNA) [5'-biotin A+B DRAIC RNA], the binding result with GST-NEMO is given as “no binding”. In the data set with MBP-IKKα-6His, the Kd worked out at 6.29 ± 1.08 nM.
